Source: patent US20200048331A1 (CANIMGUIDE THERAPEUTICS, published 2020)
Where no end group is shown, it is not given here. The star is where a group is joined. Cam = NC(=O)C*

B1: synthesized albumin peptide 2605 NEETFLKKYLYE (peptide)
peptide: NEETFLKKYLYE
notes: Synthetic (CSBio); also called E5K peptide 2605
B2: synthesized albumin peptide 2606 KLDELRDEGKAS (peptide)
peptide: KLDELRDEGKAS
notes: Synthetic (CSBio); also called E5K peptide 2606

These molecules were tested against artificial cell surface (ACS): biotinylated cell surface proteins from human mononuclear blood cells coupled to streptavidin-sepharose (assay: ACS affinity column adsorption of tryptic dHSA peptides, MALDI-TOF ms).

| Per cent adsorbed (per cent adsorbed, printed as fraction) | Molecule |
| --- | --- |
| 0.64 | HSA tryptic peptide residues 438-452 … |
| 0.59 | HSA tryptic peptide residues 439-452 … |
| 0.29 | AAFTEC(Cam)C(Cam)QAADK [HSA tryptic peptide residues 187-198 …] |
| 0.08 | FKDLGEENFK [HSA tryptic peptide residues 35-44 …] |
| 0.01 | DDNPNLPR [HSA tryptic peptide residues 131-138 DDNPNLPR] |
| -0.37 | YKAAFTEC(Cam)C(Cam)QAADK [HSA tryptic peptide residues 185-198 …] |
| -0.08 | ETYGEMADC(Cam)C(Cam)AK [HSA tryptic peptide residues 106-117 …] |
| 0.41 | FQNALLVR [HSA tryptic peptide residues 427-434 FQNALLVR] |
| 0.36 | SLHTLFGDK [HSA tryptic peptide residues 089-097 …] |
| 0.34 | YLYEIAR [HSA tryptic peptide residues 162-168 YLYEIAR] |
| 0.6 | KVFDEFKPLVEEPQNLIKQ [HSA tryptic peptide residues 397-413 …] |
| 0.03 | YIC(Cam)ENQDSISSK [HSA tryptic peptide residues 287-298 …] |
| 0.32 | C(Cam)C(Cam)AAADPHEC(Cam)YAK [HSA tryptic peptide residues 384-396 …] |
| 0.13 | VHTEC(Cam)C(Cam)HGDLLEC(Cam)ADDR [HSA tryptic peptide residues 265-281 …] |
| 0.22 | NECFLQHK (Cys alkylated with iodoacetamide (from dHSA)) [HSA tryptic peptide residues 123-130 NECFLQHK] |
| 0.2 | QNC(Cam)ELFEQLGEYK [HSA tryptic peptide residues 414-426 …] |
| 0.23 | AVMDDFAAFVEK [HSA tryptic peptide residues 570-581 …] |
| -0.02 | LVNEVTEFAK [HSA tryptic peptide residues 066-075 …] |
| 0.42 | RPC(Cam)FSALEVDETYVPK [HSA tryptic peptide residues 509-524 …] |
| 0.02 | LDELRDEGK [HSA tryptic peptide residues 206-214 …] |
| 0.36 | LKEC(Cam)C(Cam)EKPLLEK [HSA tryptic peptide residues 299-310 …] |
| 0.71 | KYLYEIAR [HSA tryptic peptide residues 161-168 KYLYEIAR] |
| 0.35 | LCTVATLR (Cys alkylated with iodoacetamide (from dHSA)) [HSA tryptic peptide residues 098-105 LCTVATLR] |
| 0.26 | C(Cam)C(Cam)TESLVNR [HSA tryptic peptide residues 500-508 …] |

The molecules below were run against artificial cell surface (ACS): biotinylated cell surface proteins from human mononuclear blood cells coupled to streptavidin-sepharose (assay: ACS affinity column adsorption of ASP-N dHSA peptides (700-3600 Da), MALDI-TOF ms).

| Per cent adsorbed (per cent adsorbed, printed as fraction) | Molecule |
| --- | --- |
| 0.65 | DSISSKLKEC(Cam)C(Cam)EKPLLEKSHC(Cam)IAEVEN [HSA ASP-N peptide residues 293-319 …] |
| 1 | DHVKLVNEVTEFAKTC(Cam)VA [HSA ASP-N peptide residues 62-79 …] |
| 0.86 | DETYVPKEFNAETFTHA [HSA ASP-N peptide residues 518-535 …] |
| 1 | DDKETC(Cam)FAEEGKKLVAASQAALGL [HSA ASP-N peptide residues 586-609 …] |
| 0.65 | DKLC(Cam)TVATLRETYGEM [HSA ASP-N peptide residues 96-112 …] |
| 0.87 | DRVTKC(Cam)C(Cam)TESLVNRRPC(Cam)FSALEV [HSA ASP-N peptide residues 495-517 …] |

Each molecule was assayed against artificial cell surface (ACS): biotinylated cell surface proteins from human mononuclear blood cells coupled to streptavidin-sepharose (assay: ACS affinity column adsorption of ASP-N dHSA peptides (3200-9000 Da), MALDI-TOF ms).

| Per cent adsorbed (per cent adsorbed, printed as fraction) | Molecule |
| --- | --- |
| 1 | HSA ASP-N peptide residues 96-130 … |
| 1 | IC(Cam)TLSEKERQIKKQTALVELVKHKPKATKEQLKAVM [HSA ASP-N peptide residues 536-572 …] |
| 0.37 | YLSVVLNQLC(Cam)VLHEKTPVSDRVTKC(Cam)C(Cam)TESLVNRRPC(Cam)FSALEV [HSA ASP-N peptide residues 475-517 …] |
| 1 | LGEENFKALVLIAFAQYLQQC(Cam)PFEDHVKLVNEVTEFAKTC(Cam)VA [HSA ASP-N peptide residues 37-79 …] |
| 1 | LAKYIC(Cam)ENQDSISSKLKEC(Cam)C(Cam)EKPLLEKSHC(Cam)IAEVEN [HSA ASP-N peptide residues 283-319 …] |
| 1 | YSVVLLLRLAKTYETTLEKC(Cam)C(Cam)AAADPHEC(Cam)YAKVF [HSA ASP-N peptide residues 364-398 …] |
| 1 | VFLGMFLYEYARRHPDYSVVLLLRLAKTYETTLEKC(Cam)C(Cam)AAA [HSA ASP-N peptide residues 348-388 …] |
| 1 | RVTKC(Cam)C(Cam)TESLVNRRPC(Cam)FSALEVDETYVPKEFNAETFTFHA [HSA ASP-N peptide residues 495-535 …] |

What follows are molecules tested against T1, LFA-1 (CD11a) on immune cells (human, UniProt P20701 26-1170; P05107 23-769) (assay: effect of peptide pre-incubation on HI111 staining of LFA-1 on PBMC cytospins).
T1 construct: whole, on cells; On acetone-fixed cytospin preparations of human PBMC or THP-1 cells; also called β2-integrin
T1 sequence (P20701 26-1170, chain 1 of 2): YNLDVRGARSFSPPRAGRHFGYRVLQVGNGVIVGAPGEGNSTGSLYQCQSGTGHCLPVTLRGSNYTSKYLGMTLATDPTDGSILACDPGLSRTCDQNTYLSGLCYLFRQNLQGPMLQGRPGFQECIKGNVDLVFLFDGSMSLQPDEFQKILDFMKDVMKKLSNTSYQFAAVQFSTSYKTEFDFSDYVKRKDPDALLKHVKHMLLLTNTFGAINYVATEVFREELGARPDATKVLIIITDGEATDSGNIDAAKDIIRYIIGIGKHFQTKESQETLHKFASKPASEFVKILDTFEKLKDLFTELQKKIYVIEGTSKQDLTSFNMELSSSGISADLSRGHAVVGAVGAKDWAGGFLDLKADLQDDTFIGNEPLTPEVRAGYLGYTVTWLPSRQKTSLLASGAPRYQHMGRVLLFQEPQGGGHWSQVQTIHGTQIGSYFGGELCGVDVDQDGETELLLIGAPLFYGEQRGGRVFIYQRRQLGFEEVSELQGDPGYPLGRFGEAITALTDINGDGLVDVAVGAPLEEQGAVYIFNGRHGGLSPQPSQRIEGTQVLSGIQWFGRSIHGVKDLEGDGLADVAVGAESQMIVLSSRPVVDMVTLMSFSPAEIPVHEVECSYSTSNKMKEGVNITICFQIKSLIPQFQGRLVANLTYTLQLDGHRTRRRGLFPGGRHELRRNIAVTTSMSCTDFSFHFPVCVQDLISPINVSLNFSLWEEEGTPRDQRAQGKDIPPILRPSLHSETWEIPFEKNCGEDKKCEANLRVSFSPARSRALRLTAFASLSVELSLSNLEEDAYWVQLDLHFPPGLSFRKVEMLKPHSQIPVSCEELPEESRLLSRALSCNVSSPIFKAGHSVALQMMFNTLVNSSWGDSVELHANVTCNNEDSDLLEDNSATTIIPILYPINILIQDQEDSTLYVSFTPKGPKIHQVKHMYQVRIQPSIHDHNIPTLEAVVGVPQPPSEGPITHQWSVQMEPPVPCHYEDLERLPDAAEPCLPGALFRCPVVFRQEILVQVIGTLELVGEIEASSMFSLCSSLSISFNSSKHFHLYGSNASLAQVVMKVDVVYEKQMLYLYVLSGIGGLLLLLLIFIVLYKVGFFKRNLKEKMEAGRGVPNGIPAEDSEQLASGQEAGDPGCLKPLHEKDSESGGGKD
T1 sequence (P05107 23-769, chain 2 of 2): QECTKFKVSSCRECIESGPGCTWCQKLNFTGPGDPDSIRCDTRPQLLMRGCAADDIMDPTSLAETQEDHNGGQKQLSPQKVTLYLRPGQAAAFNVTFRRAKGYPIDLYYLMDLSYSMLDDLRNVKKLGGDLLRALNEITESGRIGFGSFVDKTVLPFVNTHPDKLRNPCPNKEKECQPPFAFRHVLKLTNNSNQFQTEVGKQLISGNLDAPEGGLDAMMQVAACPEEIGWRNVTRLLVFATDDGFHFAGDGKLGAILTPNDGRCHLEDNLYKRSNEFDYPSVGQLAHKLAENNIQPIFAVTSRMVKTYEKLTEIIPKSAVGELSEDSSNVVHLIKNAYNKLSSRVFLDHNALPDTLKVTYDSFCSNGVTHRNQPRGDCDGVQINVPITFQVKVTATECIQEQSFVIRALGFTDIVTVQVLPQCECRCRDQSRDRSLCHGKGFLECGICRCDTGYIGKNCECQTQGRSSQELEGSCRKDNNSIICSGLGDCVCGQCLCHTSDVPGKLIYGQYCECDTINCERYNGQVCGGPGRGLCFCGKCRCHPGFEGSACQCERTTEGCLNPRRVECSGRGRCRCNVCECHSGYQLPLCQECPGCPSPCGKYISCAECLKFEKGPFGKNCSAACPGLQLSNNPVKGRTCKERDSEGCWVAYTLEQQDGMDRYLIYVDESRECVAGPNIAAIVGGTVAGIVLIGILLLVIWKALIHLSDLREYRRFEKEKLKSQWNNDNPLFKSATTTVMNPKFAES

| binding result | Molecule |
| --- | --- |
| binds | B1 |

These molecules were tested against T1, LFA-1 (CD11a) on immune cells (assay: inferred from modulation of HI111 staining of LFA-1 on mononuclear blood cells).

| binding result | Molecule |
| --- | --- |
| binds | VFDEFKPLVEEPQNLIK (Synthetic (CSBio); also called 80) [synthesized albumin peptide 3028 VFDEFKPLVEEPQNLIK] |

What follows are molecules tested against T1, LFA-1 (CD11a) on immune cells (assay: effect of peptide pre-incubation on HI111 staining of LFA-1 on PBMC and THP-1 cytospins).

| binding result | Molecule |
| --- | --- |
| binds | B2 |

What follows are molecules tested against artificial cell surface (ACS): biotinylated cell surface proteins from human mononuclear blood cells coupled to streptavidin-sepharose (assay: ACS affinity column adsorption of tryptic dHSA peptides, MALDI-TOF ms; first of two lines for this peptide).

| Per cent adsorbed (per cent adsorbed, printed as fraction) | Molecule |
| --- | --- |
| 0.26 | QEPERNEC(Cam)FLQHK [HSA tryptic peptide residues 118-130 …] |

Each molecule was assayed against artificial cell surface (ACS): biotinylated cell surface proteins from human mononuclear blood cells coupled to streptavidin-sepharose (assay: ACS affinity column adsorption of tryptic dHSA peptides, MALDI-TOF ms; second of two lines for this peptide).

| Per cent adsorbed (per cent adsorbed, printed as fraction) | Molecule |
| --- | --- |
| 0.18 | QEPERNEC(Cam)FLQHK [HSA tryptic peptide residues 118-130 …] |
